Measured values from article PMC10156175 (Cell, 2023).

Assays:
[1] = biological target: SCF^SKP2 (CUL1-RBX1-SKP1-SKP2), pre-formed (human, UniProt Q13616;P62877;P63208;Q13309); assay: native gel or EMSA
[2] = biological target: SCF^FBXW7 (CUL1-RBX1-SKP1-FBXW7), pre-formed (human, UniProt Q13616;P62877;P63208;Q969H0, for the native gels: labelled with fluorescein (site not stated)); assay: native gel or EMSA
CUL1 = CUL1 (human, UniProt Q13616); assay: cryo-EM structure
Sequence of CUL1 (Q13616 whole entry): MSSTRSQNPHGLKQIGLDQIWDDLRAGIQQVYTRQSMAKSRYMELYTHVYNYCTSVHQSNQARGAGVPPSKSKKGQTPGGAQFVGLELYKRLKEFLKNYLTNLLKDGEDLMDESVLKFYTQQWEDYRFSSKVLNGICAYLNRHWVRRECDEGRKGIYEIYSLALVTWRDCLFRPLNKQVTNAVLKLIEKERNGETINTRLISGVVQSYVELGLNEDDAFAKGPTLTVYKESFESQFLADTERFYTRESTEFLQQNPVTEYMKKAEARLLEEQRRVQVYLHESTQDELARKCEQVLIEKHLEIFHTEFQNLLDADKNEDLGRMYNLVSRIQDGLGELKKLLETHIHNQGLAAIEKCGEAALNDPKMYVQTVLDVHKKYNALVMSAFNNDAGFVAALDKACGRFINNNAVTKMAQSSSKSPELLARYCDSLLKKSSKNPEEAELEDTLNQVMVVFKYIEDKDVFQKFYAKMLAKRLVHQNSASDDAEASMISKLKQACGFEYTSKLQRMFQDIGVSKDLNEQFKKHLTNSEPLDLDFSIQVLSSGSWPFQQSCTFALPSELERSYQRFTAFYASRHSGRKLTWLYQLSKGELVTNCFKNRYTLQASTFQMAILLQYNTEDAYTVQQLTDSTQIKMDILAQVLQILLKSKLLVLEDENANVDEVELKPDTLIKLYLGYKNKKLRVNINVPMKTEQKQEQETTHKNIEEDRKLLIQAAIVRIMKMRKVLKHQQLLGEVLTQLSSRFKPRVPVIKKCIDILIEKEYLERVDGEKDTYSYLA

Sequence of SCF^SKP2 (CUL1-RBX1-SKP1-SKP2), pre-formed (Q13616 whole entry, chain 1 of 4): as the sequence (Q13616 whole entry) above
Sequence of SCF^SKP2 (CUL1-RBX1-SKP1-SKP2), pre-formed (P62877 5-108, chain 2 of 4): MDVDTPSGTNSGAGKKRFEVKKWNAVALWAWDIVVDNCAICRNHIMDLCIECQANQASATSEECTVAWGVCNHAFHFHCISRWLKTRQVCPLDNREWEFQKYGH
Sequence of SCF^SKP2 (CUL1-RBX1-SKP1-SKP2), pre-formed (P63208 whole entry, chain 3 of 4): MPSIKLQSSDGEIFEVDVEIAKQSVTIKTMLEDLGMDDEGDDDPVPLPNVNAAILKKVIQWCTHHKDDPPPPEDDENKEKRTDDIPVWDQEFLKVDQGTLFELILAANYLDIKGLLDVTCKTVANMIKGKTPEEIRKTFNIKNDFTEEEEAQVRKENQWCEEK
Sequence of SCF^SKP2 (CUL1-RBX1-SKP1-SKP2), pre-formed (Q13309 whole entry, chain 4 of 4): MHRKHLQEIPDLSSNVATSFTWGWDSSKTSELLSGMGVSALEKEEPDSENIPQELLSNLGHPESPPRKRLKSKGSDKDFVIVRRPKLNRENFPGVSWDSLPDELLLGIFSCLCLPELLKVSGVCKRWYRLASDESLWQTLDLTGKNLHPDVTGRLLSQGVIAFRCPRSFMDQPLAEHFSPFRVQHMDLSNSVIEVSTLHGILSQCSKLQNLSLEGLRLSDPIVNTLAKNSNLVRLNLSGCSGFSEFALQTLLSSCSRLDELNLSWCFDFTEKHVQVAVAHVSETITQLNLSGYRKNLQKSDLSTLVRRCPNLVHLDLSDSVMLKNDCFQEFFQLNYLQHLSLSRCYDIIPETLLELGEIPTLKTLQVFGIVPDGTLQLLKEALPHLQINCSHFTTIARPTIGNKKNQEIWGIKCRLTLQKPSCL
Sequence of SCF^FBXW7 (CUL1-RBX1-SKP1-FBXW7), pre-formed (Q13616 whole entry, chain 1 of 3): as the sequence (Q13616 whole entry) above
Sequence of SCF^FBXW7 (CUL1-RBX1-SKP1-FBXW7), pre-formed (P62877 5-108, chain 2 of 3): as the sequence (P62877 5-108, chain 2 of 4) above
Sequence of SCF^FBXW7 (CUL1-RBX1-SKP1-FBXW7), pre-formed (P63208 whole entry, chain 3 of 3): as the sequence (P63208 whole entry, chain 3 of 4) above

Binder	binding result [1]	binding result [2]	binding result (CUL1)
CAND1 (Cullin-associated NEDD8-dissociated protein 1) (natural protein, for the native gels only: TAMRA-(PEG)5-LPETGG peptide joined to the amino-terminus by sortase) MASASYHISNLLEKMTSSDKDFRFMATNDLMTELQKDSIKLDDDSERKVVKMILKLLEDKNGEVQNLAVKCLGPLVSKVKEYQVETIVDTLCTNMLSDKEQLRDISSIGLKTVIGELPPASSGSALAANVCKKITGRLTSAIAKQEDVSVQLEALDIMADMLSRQGGLLVNFHPSILTCLLPQLTSPRLAVRKRTIIALGHLVMSCGNIVFVDLIEHLLSELSKNDSMSTTRTYIQCIAAISRQAGHRIGEYLEKIIPLVVKFCNVDDDELREYCIQAFESFVRRCPKEVYPHVSTIINICLKYLTYDPNYNYDDEDEDENAMDADGGDDDDQGSDDEYSDDDDMSWKVRRAAAKCLDAVVSTRHEMLPEFYKTVSPALISRFKEREENVKADVFHAYLSLLKQTRPVQSWLCDPDAMEQGETPLTMLQSQVPNIVKALHKQMKEKSVKTRQCCFNMLTELVNVLPGALTQHIPVLVPGIIFSLNDKSSSSNLKIDALSCLYVILCNHSPQVFHPHVQALVPPVVACVGDPFYKITSEALLVTQQLVKVIRPLDQPSSFDATPYIKDLFTCTIKRLKAADIDQEVKERAISCMGQIICNLGDNLGSDLPNTLQIFLERLKNEITRLTTVKALTLIAGSPLKIDLRPVLGEGVPILASFLRKNQRALKLGTLSALDILIKNYSDSLTAAMIDAVLDELPPLISESDMHVSQMAISFLTTLAKVYPSSLSKISGSILNELIGLVRSPLLQGGALSAMLDFFQALVVTGTNNLGYMDLLRMLTGPVYSQSTALTHKQSYYSIAKCVAALTRACPKEGPAVVGQFIQDVKNSRSTDSIRLLALLSLGEVGHHIDLSGQLELKSVILEAFSSPSEEVKSAASYALGSISVGNLPEYLPFVLQEITSQPKRQYLLLHSLKEIISSASVVGLKPYVENIWALLLKHCECAEEGTRNVVAECLGKLTLIDPETLLPRLKGYLISGSSYARSSVVTAVKFTISDHPQPIDPLLKNCIGDFLKTLEDPDLNVRRVALVTFNSAAHNKPSLIRDLLDTVLPHLYNETKVRKELIREVEMGPFKHTVDDGLDIRKAAFECMYTLLDSCLDRLDIFEFLNHVEDGLKDHYDIKMLTFLMLVRLSTLCPSAVLQRLDRLVEPLRATCTTKVKANSVKQEFEKQDELKRSAMRAVAALLTIPEAEKSPLMSEFQSQISSNPELAAIFESIQKDSSSTNLESMDTS	binds	binds	–
FBXW7 (263-C) (domain or fragment) TQVKHMMQVIEPQFQRDFISLLPKELALYVLSFLEPKDLLQAAQTCRYWRILAEDNLLWREKCKEEGIDEPLHIKRRKVIKPGFIHSPWKSAYIRQHRIDTNWRRGELKSPKVLKGHDDHVITCLQFCGNRIVSGSDDNTLKVWSAVTGKCLRTLVGHTGGVWSSQMRDNIIISGSTDRTLKVWNAETGECIHTLYGHTSTVRCMHLHEKRVVSGSRDATLRVWDIETGQCLHVLMGHVAAVRCVQYDGRRVVSGAYDFMVKVWDPETETCLHTLQGHTNRVYSLQFDGIHVVSGSLDTSIRVWDVETGNCIHTLTGHQSLTSGMELKDNILVSGNADSTVKIWDIKTGQCLQTLQGPNKHQSAVTCLQFNKNFVITSSDDGTVKLWDLKTGEFIRNLVTLESGGSGGVVWRIRASNTKLVCAVGSRNGTEETKLLVLDFDVDMK	–	–	binds
